According to publication PMC2931317:

Biological target: T1, DIP1-c (Disconnected Interacting Protein 1, longest isoform) (Drosophila melanogaster, UniProt C6TP62 1-410)
T1 sequence: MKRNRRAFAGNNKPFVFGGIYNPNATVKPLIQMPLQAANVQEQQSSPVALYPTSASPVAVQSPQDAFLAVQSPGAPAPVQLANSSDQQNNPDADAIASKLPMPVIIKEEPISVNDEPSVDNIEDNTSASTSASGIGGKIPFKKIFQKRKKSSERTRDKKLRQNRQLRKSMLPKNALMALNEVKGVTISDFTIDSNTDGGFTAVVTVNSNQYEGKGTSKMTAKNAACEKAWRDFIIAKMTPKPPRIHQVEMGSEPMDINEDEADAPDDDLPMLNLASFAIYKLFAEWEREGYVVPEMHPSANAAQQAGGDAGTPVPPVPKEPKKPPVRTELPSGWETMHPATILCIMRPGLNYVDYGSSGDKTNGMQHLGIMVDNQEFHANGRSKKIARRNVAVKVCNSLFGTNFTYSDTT
Test: EMSA

B1: dsDNA40 (dsDNA)
DNA 1: CCGGGCTGCACATGGTTAATGGCCAGTCCACGCGTAGATC
DNA 2: GATCTACGCGTGGACTGGCCATTAACCATGTGCAGCCCGG
- Kd: 26 ± 8 nM
